Where a chain is given by its changes, count along the chain named. Numbers in names are those of the source.

Experiment [1] deals with T1, Recombinant Human DLL4 (R&D Systems Cat#1506-D4/CF) (human, UniProt Q9NR61 27-524).
T1 construct: Bought from R&D Systems; also called rHuman DLL4; delta-like protein 4
In words: MSD multispot ECL, antigen spotted on plate, Fab 44.1 nM; blank spot 200.

Experiment [2] concerns the target T2, rHuman ErbB2/Fc Chimera, CF (R&D Systems Cat#1129-ER) (human, UniProt P04626 23-652).
T2 construct: Bought from R&D Systems; also called human epidermal growth factor 2 receptor (ErbB2); not shown: Fc of the bought chimera
The description is as above.

Experiment [3] has as its target T3, rHuman EGF R/Fc Chimera, CF (R&D Systems Cat#344-ER) (human, UniProt P00533 25-645).
T3 construct: Bought from R&D Systems; also called epidermal growth factor receptor (EGF R); not shown: Fc of the bought chimera
The description is as above.

Experiment [4] deals with T4, rHuman Notch-1/Fc Chimera, CF (R&D Systems Cat#3647-TK) (human, UniProt P46531 19-526).
T4 construct: Bought from R&D Systems; not shown: Fc of the bought chimera
The experiment is described as above.

For experiment [5], the target named is T5, rHuman CD44/Fc Chimera, CF (R&D Systems Cat#3660-CD) (human, UniProt P16070 21-220).
T5 construct: Bought from R&D Systems; not shown: Fc of the bought chimera
The description is as above.

The target of experiment [6] is T6, rHuman P-Cadherin/Fc Chimera, CF (R&D Systems Cat#861-PC) (human, UniProt P22223 108-654).
T6 construct: Bought from R&D Systems; not shown: Fc of the bought chimera
The experiment is described as above.

Experiment [7] has as its target T7, rHuman IGF-1 sR, CF (R&D Systems Cat#391-GR) (human, UniProt P08069 31-932).
T7 construct: Bought soluble receptor; The column head prints only 'IGF-1'; also called insulin-like growth factor-1 soluble receptor
In words: ECL Multispot (MSD) assay, antigen spotted on plate, 10 nM Fab; blank spot of this row 487.

The target in experiment [8] is T8, rHuman P-Cadherin/Fc Chimera, CF (R&D Systems Cat#861-PC) (human, UniProt P22223 108-654).
T8 construct: Bought reagent; Fc part of the bought chimera not given
The description is as above.

Experiment [9] addresses T9, rHuman Erythropoietin R/Fc Chimera, CF (R&D Systems Cat#963-ER) (human, UniProt P19235 25-250).
T9 construct: Bought reagent; also called EPO R; EPO R/Fc; Fc part of the bought chimera not given
T9 sequence (looked up): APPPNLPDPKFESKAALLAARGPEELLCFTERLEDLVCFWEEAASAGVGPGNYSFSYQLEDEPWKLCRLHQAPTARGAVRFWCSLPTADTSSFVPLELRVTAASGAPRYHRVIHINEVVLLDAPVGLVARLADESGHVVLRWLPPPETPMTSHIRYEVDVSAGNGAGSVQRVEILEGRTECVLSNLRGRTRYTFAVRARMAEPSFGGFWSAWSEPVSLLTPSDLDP
The description is as above.

For experiment [10], the target named is T10, rHuman ErbB2/Fc Chimera, CF (R&D Systems Cat#1129-ER) (human, UniProt P04626 23-652).
T10 construct: Bought reagent; also called human epidermal growth factor 2 receptor; Fc part of the bought chimera not given
Described as above.

Experiment [11] deals with T11, rHuman EGF R/Fc Chimera, CF (R&D Systems Cat#344-ER) (human, UniProt P00533 25-645).
T11 construct: Bought reagent; also called epidermal growth factor receptor; Fc part of the bought chimera not given
The experiment is described as above.

In experiment [12] the target is T12, rHuman HGF R/c-MET/Fc Chimera, CF (R&D Systems Cat#358-MT/CF) (human, UniProt P08581 25-932).
T12 construct: Bought reagent; also called HGF R/Fc; hepatocyte growth factor receptor; Fc part of the bought chimera not given
T12 sequence (P08581 25-932, change not shown): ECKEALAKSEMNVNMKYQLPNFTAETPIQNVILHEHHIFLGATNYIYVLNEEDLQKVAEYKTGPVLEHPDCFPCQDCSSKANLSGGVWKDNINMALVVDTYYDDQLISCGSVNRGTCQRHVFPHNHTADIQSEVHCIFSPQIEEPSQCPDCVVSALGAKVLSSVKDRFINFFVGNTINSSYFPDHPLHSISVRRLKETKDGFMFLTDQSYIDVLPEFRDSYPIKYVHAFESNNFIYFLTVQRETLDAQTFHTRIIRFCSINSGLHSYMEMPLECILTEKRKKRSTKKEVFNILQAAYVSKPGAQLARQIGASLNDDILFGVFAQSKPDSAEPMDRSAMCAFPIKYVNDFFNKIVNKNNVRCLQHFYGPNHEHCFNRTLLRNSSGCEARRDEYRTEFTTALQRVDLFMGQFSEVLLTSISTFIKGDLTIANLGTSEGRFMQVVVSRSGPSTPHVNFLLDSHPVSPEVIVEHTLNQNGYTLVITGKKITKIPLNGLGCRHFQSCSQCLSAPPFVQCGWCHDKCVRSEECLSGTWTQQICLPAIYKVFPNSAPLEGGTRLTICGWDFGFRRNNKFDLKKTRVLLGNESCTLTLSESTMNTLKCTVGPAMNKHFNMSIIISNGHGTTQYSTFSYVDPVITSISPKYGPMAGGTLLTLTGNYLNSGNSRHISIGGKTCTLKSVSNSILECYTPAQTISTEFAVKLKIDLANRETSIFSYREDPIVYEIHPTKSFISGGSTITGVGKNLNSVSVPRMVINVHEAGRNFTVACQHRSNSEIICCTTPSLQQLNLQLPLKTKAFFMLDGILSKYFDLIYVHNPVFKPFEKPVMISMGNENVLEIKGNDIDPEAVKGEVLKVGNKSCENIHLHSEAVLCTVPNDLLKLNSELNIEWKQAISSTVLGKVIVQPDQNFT
The description is as above.

The target in experiment [13] is T13, rHuman Notch-1/Fc Chimera, CF (R&D Systems Cat#3647-TK) (human, UniProt P46531 19-526).
T13 construct: Bought reagent; Fc part of the bought chimera not given
The experiment is described as above.

The target of experiment [14] is T14, rHuman CD44/Fc Chimera, CF (R&D Systems Cat#3660-CD) (human, UniProt P16070 21-220).
T14 construct: Bought reagent; Fc part of the bought chimera not given
The experiment is described as above.

Experiment [15] addresses T15, Recombinant Human DLL4 (R&D Systems Cat#1506-D4/CF) (human, UniProt Q9NR61 27-524).
T15 construct: Bought recombinant protein; also called rHuman DLL4; delta-like protein 4
In words: Multispot ECL (MSD), antigen spotted on plate, Fab 62.5 nM; blank spot 268.

Experiment [16] has as its target T16, rHuman Notch-1/Fc Chimera, CF (R&D Systems Cat#3647-TK) (human, UniProt P46531 19-526).
T16 construct: Bought recombinant protein; Fc part of the bought chimera not given
Described as above.

Experiment [17] concerns the target T17, rHuman IGF-1 sR, CF (R&D Systems Cat#391-GR) (human, UniProt P08069 31-932).
T17 construct: Bought recombinant soluble receptor; also called insulin-like growth factor-1 soluble receptor
The description is as above.

For experiment [18], the target named is T18, rHuman Erythropoietin R/Fc Chimera, CF (R&D Systems Cat#963-ER) (human, UniProt P19235 25-250).
T18 construct: Bought recombinant protein; also called EPO R/Fc; Epo R; Fc part of the bought chimera not given
T18 sequence (looked up): T9 sequence (looked up)
The experiment is described as above.

B1: Fab VH1-46_IGHD3-10*01_IGHJ4*01 & B3_IGKJ1*01 (Fab, V domains shown)
VH: QVQLVQSGAEVKKPGASVKVSCKASGYTFTSYYMHWVRQAPGQGLEWMGIINPSGGSTSYAQKFQGRVTMTRDTSTSTVYMELSSLRSEDTAVYYCAREYYYGSGSYYNDYFDYWGQGTLVTVSS
VL: not shown
notes: Tested as a Fab made in E. coli; VH was cloned into Plasmid A (CH1 constant region, His6 and Flag tags); The kappa VL was cloned into Plasmid C (kappa CL)
On to B1, for which the ECL signal was 388 in [1]; 347 in experiment [2]; 428 in [3]; 331 in experiment [4]; 302 in experiment [5]; 343 in experiment [6].

B2: Fab VH1-46_IGHD6-6*01_IGHJ1*01 S102A/S103P/S104F (APF) & L6_IGKJ1*01 (Fab, V domains shown)
VH: QVQLVQSGAEVKKPGASVKVSCKASGYTFTSYYMHWVRQAPGQGLEWMGIINPSGGSTSYAQKFQGRVTMTRDTSTSTVYMELSSLRSEDTAVYYCAREEYAPFSAEYFQHWGQGTLVTVSS
VL: not shown
notes: Tested as a Fab made in E. coli; also called H:APF & L:wt; APF triple mutant
With B2, the ECL signal came out at 453 in experiment [7]; 384 in [8]; 326 in experiment [9]; 381 in experiment [10]; 206 in [11]; 379 in experiment [12]. Besides, the ECL signal was determined as 450 in [13] and 363 in experiment [14].

B3: Fab VH1-46_IGHD6-13*01_IGHJ4*01 & B3_IGKJ1*01 (Fab, V domains shown)
VH: B2 VH with E100G, A102S, P103S, F104S, S105W, A106Y, E107D, Q110D, H111Y
VL: not shown
notes: Germline Fab made in E. coli; VH was cloned into Plasmid A (CH1, His6 and Flag tags) and the kappa VL into Plasmid C (kappa CL)
Turning to B3, the ECL signal came out at 715 in experiment [15], 536 in experiment [16], 491 in [17] and 7750 in experiment [18].

Values taken from US20120316071A1 (published 2012).
